Results: publication PMC9876794 (2022)
Where a chain is given by its changes, count along the chain named.

B1: A47 (antibody, V domains shown)
VH: HVQLQQPGAELVKPGASVKVSCKASGYTFTSFWMHWVKQRPGQGLEWIGGIHPSDSDTNYNQKFKGKATLTVNKSSSTAYMQLSSLTSEDSAVYYCAIGDECANWGQGTLVTVSA
VL: DIVLTQSPASLAVSLGQRATISCRASKSVSTSGYSYMHWYQQKPGQPPKLLIYLASNLESGVPARFSGSGSGTDFTLNIHPVEEEDAATYYCHHSRELPFTFGSGTKLEIK
B2: A24 (antibody, V domains shown)
VH: DVQLQESGPGLVKPSQSLSLTCSVTGYSITSGYYWNWIRQFPGNKMEWMGYITYDGRNTYNPSPKNRLSITRDTSKNQFFLKLNSVTTEDTATYYCARCHYYGSSYAMDYWGQGTSVTVSS
VL: DIVMTQSHKFMSTSVGDRVSITCKASQDVSTAVAWYRQKPGQSPKLLIYWASTRHTGVPDRFTGSGSGTDYTLTISSVQPEDLALYYCQQHYTTPLTFGAGTKLELK
B3: B27 (antibody, V domains shown)
VH: EVKLEESGGGLVQPGGSMKLSCAASGFTFSDAWMDWVRQSPEKGLEWVAEIRNKANNHATYYAESVKGRFTISRDDSKSSVYLQMNSLRAEDTGIYYCTNYKYYAMDYWGQGTSVTVSS
VL: QIVLTQSPAIMSASPGEKVTMTCSASSSVSYMYWYQQKPGSSPRLLIYDTSNLASGVPVRFSGSGSGTSYSLTISRMEAEDAATYYCQQWSSYPLTFGAGTKLELK
B4: B05 (antibody, V domains shown)
VH: QVQLKQSGAELVRPGASVKLSCKASGYTFTDYYINWVKQRPGQGLEWIARIYPGSGNPYYNEKFKGKATLTAEKSSSTAYMQLSSLTSEDSAVYFCARRGTLLYAFAYWGQGTLVTVSA
VL: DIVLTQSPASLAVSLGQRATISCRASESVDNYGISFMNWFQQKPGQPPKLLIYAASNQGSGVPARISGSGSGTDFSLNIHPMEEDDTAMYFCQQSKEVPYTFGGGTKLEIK
B5: B32 (antibody, V domains shown)
VH: QVQLQQSGPELVKPGASVKISCKASGYAFSSSWMNWVKQRPGKGLEWIGRIYPGDGDTNYNGKFKGKATLTADKSSSTAYMQLSSLTSEDSAVYFCARELDPPWGQGTTLTVSS
VL: DILMTQSPSSMSVSLGDTVSITCHASQGISSNIGWLQQKPGKSFKGLIYHGTNLEDGVPSRFCGSGSGADYSLTISSLESEDFADYYCVQYAQFPFTFGSGTKLEIK
B6: B33 (antibody, V domains shown)
VH: EVQLQQSGPELVKPGTSVKISCKASGYSFTGYYMNWVKQSPEKSLEWIGEINPSTGGTTYNQKFKAKATLTVDKSSSTAYMQLKSLTSEDSAVYYCARADYWGQGTTLTVSS
VL: DIVLTQSPASLAVSLGQRATISCRASESVEYYVTSLMQWYQQKPGQPPKLLIYAASNVESGVPARFSGSGSGTDFSLNIHPVEEDDIAMYFCQQSREVPYTFGGGTKLEIK
B7: A09 (antibody, V domains shown)
VH: QVQLQQPGAELVKPGASVKVSCKASGYTFTSYWMHWVKQRPGQGLEWIGRIHPSDSDTNYNQKFKGKATLTVDKSSSTAYMQLSSLTSEDSAVYSCARGMDYWGQGTSVTVSS
VL: DVVLTQTPLSLPVNIGDQASISCKSTKSLLNSVGFTYLDWYLQKPGQSPQLLIYLVSNRFSGVPDRFSGSGSGTDFTLKISRVEAEDLGVYYCFQSNYLPYTFGGGTKLEIK
B8: D159 (antibody, V domains shown)
VH: QVQLVESGGGVVQPGGSLRLSCAASGFTFSTYGMHWVRQAPGKGLEWVAFIQYDGSNKYYADSVKGRFTISRDNSKNTLCLQMNTLRAEDTAVYYCAKDLYYYGSGSYFDYWGQGTLVTVSS
VL: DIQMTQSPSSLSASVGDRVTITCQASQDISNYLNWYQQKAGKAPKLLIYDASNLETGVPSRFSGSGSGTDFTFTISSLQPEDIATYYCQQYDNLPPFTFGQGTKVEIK
B9: D064 (antibody, V domains shown)
VH: EVQLVQSGAEVKKPGESLKISCKGSGYSFTSYWIGWVRQMPGKGLEWMGIIYPGDSDTRYSPSFQGQVTISADKSISTAYLQWSSLKASDTAMYYCASHAGGYDFDYYYMDVWGKGTTVTVSS
VL: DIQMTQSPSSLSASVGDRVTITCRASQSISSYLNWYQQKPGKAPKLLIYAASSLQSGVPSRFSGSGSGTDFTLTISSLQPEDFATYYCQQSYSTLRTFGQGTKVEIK
B10: C2743 (antibody, V domains shown)
VH: QVQLVQSGAEVKKPGASVKVSCKASGYTFTSYGISWVRQAPGQGLEWMGWISAYNGNTNYAQKLQGRVTMTTDTSTSTAYMELRSLRSDDTAVYYCARDFGELATPLDYWGQGTLVTVSS
VL: EIVLTQSPATLSLSPGERATLSCRASQSVSSYLAWYQQKPGQAPRLLIYDASNRATGIPARFSGSGSGTDFTLTISSLEPEDFAVYYCQQRSNSLTFGGGTKVEIK
B11: C2721 (antibody, V domains shown)
VH: EVQLVESGGGLIQPGGSLRLSCAASGFTVSSNYMSWVRQAPGKGLEWVSVIYSGGSTYYADSVKGRFTISRDNSKNTLYLQMNSLRAEDTAVYYCARDMGGDAFDIWGQGTMVTVSS
VL: DIQLTQSPSFLSASVGDRVTITCRASQGISSYLAWYQQKPGKAPKLLIYAASTLQSGVPSRFSGSGSGTEFTLTISSLQPEDFATYYCQQLNSYPFFGGGTKVEIK
B12: C2727 (antibody, V domains shown)
VH: EVQLVESGGGLIQPGGSLRLSCAASGFTVSSNYMSWVRQAPGKGLEWVSVIYSGGSTYYADSVKGRFTISRDNSKNTLYLQMNSLRAEDTAVYYCAREGPQKTDWGQGTLVTVSS
VL: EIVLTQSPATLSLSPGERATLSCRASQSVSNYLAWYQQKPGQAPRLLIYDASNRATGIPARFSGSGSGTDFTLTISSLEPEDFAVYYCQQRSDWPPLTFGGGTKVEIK
B13: D002 (antibody, V domains shown)
VH: EVQLVQSGAEVKKPGESLKISCKASGYNFTTSWIGWVRQMPGKGLEWMGIIYPGDFDTTYSPSFQGQVTISADKSISTAYLQWSSLKASDTAMYYCARVGPTAGTDGYNYLDWYFDLWGRGTLVTVSS
VL: SYELTQPPSVSVSPGQTARITCSGDALPKQFSYWYQQKPGQAPVLVIYKDNERPSGIPERFSGSSSGTTVTLTISGVQAEDEADYYCQSADSISWVFGGGTKLTVL
B14: D070 (antibody, V domains shown)
VH: EVQLVESGGGLVQPGGSLRLSCAASGFTFSSYEMNWVRQAPGKGLEWVSYISSSGSTIYYADSVKGRFTISRDNAKNSLYLQMNSLRAEDTAVYYCARVPRGYYDSSGYYYVGYYFDYWGQGTLVTVSS
VL: DIQLTQSPSFLSASVGDRVTITCRASQGISSYLAWYQQKPGKAPKLLIYAASTLQSGVPSRFSGSGSGTEFTLTISSLQPEDFATYYCQQLNSYTFTFGPGTKVDIK
B15: C2719 (antibody, V domains shown)
VH: B11 VH with M99L, G101P, D102Y, A103G, F104M, I106V, M112T
VL: B14 VL with T95P, F96P, T97E, F98I, P100Q, K103R, V104L, D105E
B16: D046 (antibody, V domains shown)
VH: EVQLVESGGGLVQPGGSLRLSCAASGFTFSSYWMHWVRQAPGKGLVWVSRINSDGSSTSYADSVKGRFTISRDNAKNTLYLQMNSLRAEDTAVYYCARGVPHDYGDYESVILAGYYYYYYGMDVWGQGTTVTVSS
VL: not shown
B17: D049 (antibody, V domains shown)
VH: EVQLVQSGAEVKKPGESLKISCKGSGYSFISHWIGWVRQMPGKGLEWMGIIYPGDSDTRNSPSFQGQVTISADKSISTAYLQWSSLKASDTAMYYCARLLGSNYEVGFDYWGQGTLVTVSS
VL: not shown
B18: D147 (antibody, V domains shown)
VH: QVQLVESGGGVVQPGRSLRLSCAASGFTFSSYGMYWVRQAPGKGLEWVAVISYDGSNKYYADSVKGRFTISRDNSKNTLYLQMNSLRAEDTAVYYCAKGGGEYCSGGNCYSSYFDYWGQGTLVTVSS
VL: not shown
B19: D051 (antibody, V domains shown)
VH: QVQLQQWGAGLLKPSETLSLTCAVYGGSFSDYYWTWIRQAPGKGLEWIGEINHSGSTNYNPSLKSRVTISVDTSKSQFSLSLTSVTAADTAVYYCARGRRYCNSLSCPYYFYFYMDVWDKGTTVTVSS
VL: DIQMTQSPSSVSASVGDRVTITCRASQGISSWLAWYQQKPGKAPKLLIYAASSLQSGVPSRFSGSGSGTDFTLTISSLQSEDFATYYCQQANSFPRTFGQGTRLEIK
B20: C2748 (antibody, V domains shown)
VH: QVQLVQSGAEVKKPGSSVKVSCKASGGTFTNYAISWVRQAPGQGLEWMGGIIPIFGTEDYAQRFQGRVTITADESTSTAYMELTSLTSEDTAVYFCARGLPLTVTTRRRFNFFDYWGQGTLVTVSS
VL: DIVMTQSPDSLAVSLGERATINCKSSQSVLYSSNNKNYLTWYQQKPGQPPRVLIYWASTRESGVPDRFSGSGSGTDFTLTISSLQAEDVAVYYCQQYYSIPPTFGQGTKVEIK
B21: C2699 (antibody, V domains shown)
VH: QLQLQESGPGLVKPSETLSLTCTVSRGSISSSSYYWGWIRQPPGKGLEWIGSIYYSGNTYYNPSLKSRVTISVDTSNNQFFLKLSSVTAADTAVYYCARRPNSGWGYWYFDLWGRGTLVTVSS
VL: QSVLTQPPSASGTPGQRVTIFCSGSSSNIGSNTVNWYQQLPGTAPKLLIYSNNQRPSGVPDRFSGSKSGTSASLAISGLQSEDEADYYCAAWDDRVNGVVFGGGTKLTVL
B22: C2736 (antibody, V domains shown)
VH: QVQLVQSGAEVKKPGSSVKVSCKASGGTFSSYAISWVRQAPGQGLEWMGGIIPIFGTANYAQKFQGRVTITADESTSTAYMELSSLRSEDTAVYYCASCRYYYDSSGYAQPEDYFDYWGQGTLVTVSS
VL: QSVLTQPPSVSGAPGQRVTISCTGSSSNIGAGYDVHWYQQLPGTAPKLLIYGNSNRPSGVPDRFSGSKSGTSASLAITGLQAEDEADYYCQSYDSSLSGSHVVFGGGTKLTVL
B23: D164 (antibody, V domains shown)
VH: QVQLVQSGAEVKKPGASVKVSCKASGYTFTSYYMHWVRQAPGQGLEWMGIINPSGGSTSYAQKFQGRVTMTRDTSTSTVYMELSSLRSEDTAVYYCARGGIVPAATENFDYWGQGTLVTVSS
VL: EIVLTQSPATLSLSPGERATLSCRASQSVSSYLAWYQQKPGQAPRLLIYDASNRATGIPARFSGSGSGTDFTLTISSLEPEDFAVYYCQQRSNWPITFGQGTRLEIK
B24: C2724 (antibody, V domains shown)
VH: not shown
VL: B23 VL with W94C, I96L, Q100G, R103K, L104V

Target: T1, SARS-CoV-2 spike RBD (WT) (Severe acute respiratory syndrome …, UniProt P0DTC2)
Experiment: BLI

B1 and B2 are within 1.5-fold of each other in Kd: 142 nM for the first, 205 nM for the second.

Going from B3 to B4, the Kd falls from 120 nM to 68.5 nM (1.8-fold). The second binds more tightly here.

B5 and B6 are within 1.5-fold of each other in Kd: 95.8 nM for the first, 72.7 nM for the second.

B7 gave a Kd of 30.2 nM.

Target: T1, SARS-CoV-2 spike RBD (WT)
Experiment: ELISA
Design: unit not given here

Compared with B8, B9 is higher in binding score: 59.9 for the first, 1230 for the second.

Compared with B10, B11 is higher in binding score: 14.3 for the first, 174 for the second.

First: B12
Second: B13
The binding score of the first is lower: 20 for the first, 3640 for the second.

First: B14
Second: B15
The binding score of the first is higher: 716 for the first, 59.3 for the second.

Going from B16 to B17, the binding score rises from 6.02 to 6.28.

Compared with B18, B19 is higher in binding score: 7.89 for the first, > 10000 for the second.

Going from B20 to B21, the binding score rises from 11.7 to 334.

Compared with B22, B23 is lower in binding score: 79.9 for the first, 63.2 for the second.

B24 gave a binding score of 604.

Target: T1, SARS-CoV-2 spike RBD (WT)
Experiment: BLI
Remark: another data set of the same source

Compared with B8, B9 is 20-fold higher in Kd: 16.9 nM for the first, 344 nM for the second.

Going from B10 to B11, the Kd rises from 18.5 nM to 98.5 nM (5.3-fold). The first binds more tightly here.

First: B12
Second: B13
The Kd of the first is 4.7-fold lower: 99.6 nM for the first, 465 nM for the second.

B14 and B15 are within 1.5-fold of each other in Kd: 115 nM for the first, 127 nM for the second.

Compared with B16, B17 is 4.4-fold lower in Kd: 42.4 nM for the first, 9.69 nM for the second.

Compared with B18, B19 is 24-fold higher in Kd: 94.2 nM for the first, 2240 nM for the second.

Compared with B20, B21 is 31-fold higher in Kd: 2.4 nM for the first, 74 nM for the second.

First: B22
Second: B23
The Kd of the first is 32-fold lower: 6.14 nM for the first, 194 nM for the second.

Work on B24 yielded a Kd of 174 nM.
